Results on one substance are retold here after patent EP0971740B1.

For experiment [1], the target named is FnBP purified from S. aureus strain Newman (Staphylococcus aureus). Description: competition ELISA on FnBP coated at 5 µg/ml; competitor anti-D121-34 F(ab')2 at 100 µg/ml. On the technique in general: In an ELISA, binding on a coated surface is turned into a signal by an enzyme label.
Experiment [2] shares this target. Description: competition ELISA on FnBP coated at 5 µg/ml; competitor anti-D320-33 F(ab')2 at 100 µg/ml.

Turning to “Human plasma Fn (from UniProt P02751 32-2477) (ligand)”, the concentration of soluble Fn at which F(ab')2 recognition of FnBP was virtually eliminated in experiment [1] and in experiment [2] was 50 µg/mL throughout.
